Experimental data reported in paper PMC3230689.

Assays:
FUS (FLAGHA-FUS-His6) [1] = biological target: T1, FUS (FLAGHA-FUS-His6) (human, UniProt P35637 1-526); test: EMSA
FUS (FLAGHA-FUS-His6) [2] = biological target: T1, FUS (FLAGHA-FUS-His6); test: EMSA; remark: listed apart in the source

T1 sequence (P35637 whole entry): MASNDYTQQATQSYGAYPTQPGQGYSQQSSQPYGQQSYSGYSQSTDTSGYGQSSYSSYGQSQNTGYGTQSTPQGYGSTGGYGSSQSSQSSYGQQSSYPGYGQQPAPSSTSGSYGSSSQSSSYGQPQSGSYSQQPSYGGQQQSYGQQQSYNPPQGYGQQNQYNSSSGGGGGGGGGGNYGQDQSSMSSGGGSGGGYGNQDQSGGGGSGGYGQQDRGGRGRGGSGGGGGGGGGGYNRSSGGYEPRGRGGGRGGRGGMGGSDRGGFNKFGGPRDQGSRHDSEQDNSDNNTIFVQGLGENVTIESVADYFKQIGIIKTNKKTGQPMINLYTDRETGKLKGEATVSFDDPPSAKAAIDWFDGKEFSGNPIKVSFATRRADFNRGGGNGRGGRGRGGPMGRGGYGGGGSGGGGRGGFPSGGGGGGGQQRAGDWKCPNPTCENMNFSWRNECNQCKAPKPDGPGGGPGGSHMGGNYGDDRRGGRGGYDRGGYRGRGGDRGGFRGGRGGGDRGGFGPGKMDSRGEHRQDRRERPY

AUUAUUAUUAUUAUUAUUAUUAUUAUUAUUAUUAUU (structured_RNA) [AUU trinucleotide repeat (x12)]
Kd (FUS (FLAGHA-FUS-His6) [1]): 198 nM

GAUUUAUCUUUAACUACUCAAGAUACUGAACAUGACA (structured_RNA) [SON_AB (natural left-right stem)]
Kd (FUS (FLAGHA-FUS-His6) [1]): 148 nM

GAUUAAGAUAUAACUACUCAAGAUACUGAACAUGACA (ssRNA) [SON_BB (non-complementary right-right stem)]
binding result (FUS (FLAGHA-FUS-His6) [1]): no binding

GAUUAAGAUAUAACUACUCUAUCUUCUGAACAUGACA (structured_RNA) [SON_BA (reconstituted right-left stem)]
binding result (FUS (FLAGHA-FUS-His6) [1]): binds

GGUGGUGGUGGUGGUGGUGGUGGUGGUGGUGGUGGU (ssRNA) [GGU trinucleotide repeat (x12)]
binding signal (FUS (FLAGHA-FUS-His6) [2]): > 15 fold lower Kd than SON_AB (at least; as worded in text)
